Blank lines part the entries; values can stand above or below the sequence they belong to.
Experiments:
HLA-A*32:01 = assay: IEDB peptide-MHC binding, purified MHC/competitive/radioactivity; filed as Kd, often an IC50 or EC50 that approximates it; ≥ and ≤ were set here for values at or beyond the usual limits of such assays
HLA-B*44:02 = assay: as above
HLA-B*44:03 = assay: as above
HLA-B*40:01 [1] = assay: as above
HLA-A*30:02 = assay: as above
HLA-A*23:01 = assay: as above
HLA-A*24:02 = assay: as above
HLA-A*01:01 [2] = assay: as above
HLA-A*01:01 [3] = assay: IEDB peptide-MHC binding, purified MHC/direct/fluorescence; filed as Kd, often an IC50 or EC50 that approximates it; ≥ and ≤ were set here for values at or beyond the usual limits of such assays; conditions: source organism: Homo sapiens
HLA-A*03:01 = assay: as above
HLA-A*11:01 [4] = assay: as above
HLA-A*69:01 = assay: as above
HLA-B*58:01 = assay: as above
HLA-A*02:01 = assay: as above
HLA-A*26:01 = assay: IEDB peptide-MHC binding, purified MHC/competitive/radioactivity; filed as Kd, often an IC50 or EC50 that approximates it; ≥ and ≤ were set here for values at or beyond the usual limits of such assays
HLA-A*11:01 [5] = assay: as above; conditions: source organism: Dengue virus 1 Brazil/97-11/1997
HLA-B*15:01 = assay: IEDB peptide-MHC binding, purified MHC/direct/fluorescence; filed as Kd, often an IC50 or EC50 that approximates it; ≥ and ≤ were set here for values at or beyond the usual limits of such assays; conditions: source organism: Homo sapiens
HLA-B*40:01 [6] = assay: as above; conditions: source organism: Mammarenavirus juninense
[7] = source organism: Dengue virus 3 Martinique/1243/1999
[8] = source organism: Dengue virus 4 Philippines/H241/1956
[9] = source organism: Dengue virus 1 Brazil/97-11/1997
[10] = source organism: Vaccinia virus WR
[11] = source organism: Dengue virus 1 Nauru/West Pac/1974
[12] = source organism: Dengue virus 2 Jamaica/1409/1983
[13] = source organism: Giardia lamblia ATCC 50803
[14] = source organism: Cryptosporidium parvum
[15] = source organism: Pseudomonas aeruginosa
[16] = source organism: Mycobacterium tuberculosis
[17] = source organism: Burkholderia ambifaria AMMD

Sequence: KILLVAVSI
- Kd (HLA-A*32:01; source organism: Vaccinia virus Copenhagen): 1.54 nM

Sequence: IESQKNGSW
- Kd (HLA-B*44:02; [7]): 452 nM
- Kd (HLA-B*44:03; [7]): 166 nM

Sequence: AGILKRWGQL
- Kd (HLA-A*32:01; [8]): 4440 nM

Sequence: LEELGDGLAM
- Kd (HLA-B*40:01 [1]; [9]): 51.2 nM

Sequence: CNLTSAWVMY
- Kd (HLA-A*30:02; [8]): 554 nM

Sequence: SICEIVYSF
- Kd (HLA-A*32:01; [10]): 0.352 nM

Sequence: IFGTAYGVLF
- Kd (HLA-A*23:01; [11]): 10.4 nM
- Kd (HLA-A*24:02; [11]): 37.6 nM

Sequence: MTGTLAVFLL
- Kd (HLA-A*01:01 [2]; [9]): ≥ 34600 nM

Sequence: EYQKTKNNDW
- Kd (HLA-A*23:01; [9]): ≥ 33600 nM
- Kd (HLA-A*24:02; [9]): 19700 nM

- Kd (HLA-A*01:01 [3]): 148 nM
- Kd (HLA-A*03:01; source organism: Homo sapiens): 3150 nM
- Kd (HLA-A*11:01 [4]; source organism: Homo sapiens): 381 nM
- Kd (HLA-A*69:01; source organism: Homo sapiens): 7420 nM
- Kd (HLA-B*58:01; source organism: Homo sapiens): 2030 nM
Sequence: STDHIPILY

Sequence: DFKGKTVWF
- Kd (HLA-A*23:01; [12]): 14400 nM

Sequence: QETWNRQDL
- Kd (HLA-B*40:01 [1]; [9]): 72.8 nM

Sequence: SLEKAANVQW
- Kd (HLA-B*44:02; [8]): 10700 nM

Sequence: TENILTVLL
- Kd (HLA-B*40:01 [1]; [7]): 12.2 nM
- Kd (HLA-B*44:02; [7]): 0.409 nM
- Kd (HLA-B*44:03; [7]): 351 nM

Sequence: TLYNHHRQY
- Kd (HLA-A*03:01; source organism: Burkholderia mallei): 46 nM

Sequence: SLNPYYQSY
- Kd (HLA-A*02:01; [13]): ≥ 20000 nM
- Kd (HLA-A*69:01; [13]): ≥ 20000 nM

Sequence: LTSKELMMA
- Kd (HLA-A*01:01 [2]; [12]): 5730 nM

Sequence: KMFNSVGGA
- Kd (HLA-A*02:01; [14]): 26 nM
- Kd (HLA-A*69:01; [14]): ≥ 20000 nM

Sequence: METLLLLGL
- Kd (HLA-B*40:01 [1]; [7]): 81.3 nM
- Kd (HLA-B*44:02; [7]): 8.98 nM
- Kd (HLA-B*44:03; [7]): 33.2 nM

Sequence: VAGGLLTVCY
- Kd (HLA-A*01:01 [2]; [12]): ≥ 37000 nM
- Kd (HLA-A*30:02; [12]): 108 nM

- Kd (HLA-B*44:02; source organism: Homo sapiens): 143 nM
Sequence: EEKLSVVLF

Sequence: DINFITVNI
- Kd (HLA-A*32:01; [10]): 424 nM

Sequence: SLGILCVSI
- Kd (HLA-A*32:01; [9]): 238 nM

Sequence: DEDNPYKTW
- Kd (HLA-B*44:02; [9]): 519 nM
- Kd (HLA-B*44:03; [9]): 640 nM

Sequence: EYPKTKLTDW
- Kd (HLA-A*23:01; [8]): 2550 nM
- Kd (HLA-A*24:02; [8]): 954 nM

Sequence: IINKFFEVI
- Kd (HLA-A*32:01; [10]): 11.1 nM

Sequence: RSCTLPPLRF
- Kd (HLA-A*23:01; [9]): 2520 nM
- Kd (HLA-A*24:02; [9]): 10700 nM

Sequence: EAILPEYGTL
- Kd (HLA-A*26:01; [7]): 13900 nM

- Kd (HLA-A*02:01; [15]): 5720 nM
- Kd (HLA-A*11:01 [4]; [15]): 6490 nM
- Kd (HLA-A*69:01; [15]): 1340 nM
Sequence: GVFKVWHPI

Sequence: AICSAVPVDW
- Kd (HLA-B*44:02; [9]): 893 nM

Sequence: STDGPERVIL
- Kd (HLA-A*01:01 [2]; [8]): 18700 nM

Sequence: KALKLSWFKK
- Kd (HLA-A*11:01 [5]): 135 nM
- Kd (HLA-A*32:01; [9]): 9280 nM

Sequence: RTAGMIIML
- Kd (HLA-A*32:01; source organism: Dengue virus 2 Peru/IQT2913/1996): 96.5 nM

Sequence: NRKGKVIGLY
- Kd (HLA-A*30:02; [8]): 109 nM

Sequence: NKAWMVHRQW
- Kd (HLA-B*44:02; [7]): 12600 nM

Sequence: ETLLLLTLLA
- Kd (HLA-A*26:01; [12]): ≥ 22700 nM

Sequence: KLALITVSG
- Kd (HLA-A*32:01; [8]): 82.8 nM

Sequence: AEYTNSVTNI
- Kd (HLA-B*40:01 [1]; [8]): 158 nM
- Kd (HLA-B*44:02; [8]): 280 nM
- Kd (HLA-B*44:03; [8]): 51.6 nM

Sequence: SLDRKEFEEY
- Kd (HLA-A*01:01 [2]; [8]): 1050 nM

- Kd (HLA-A*02:01; source organism: Homo sapiens): 14400 nM
- Kd (HLA-B*15:01): 465 nM
Sequence: FHMDPSGTF

- Kd (HLA-A*26:01; source organism: Homo sapiens): 8.61 nM
Sequence: YVIKVSARV

Sequence: SWALCEALTL
- Kd (HLA-A*23:01; [7]): 429 nM
- Kd (HLA-A*24:02; [7]): 500 nM

Sequence: GSPGKFWNTT
- Kd (HLA-A*32:01; [9]): ≥ 25700 nM

- Kd (HLA-A*24:02; source organism: Homo sapiens): 20 nM
Sequence: AFLPWHRLF

Sequence: WYMWLGARF
- Kd (HLA-A*23:01; [12]): 20.2 nM
- Kd (HLA-A*24:02; [12]): 16.2 nM

Sequence: ATFLWWIPL
- Kd (HLA-A*11:01 [4]; source organism: Bacillus anthracis): 12.4 nM

Sequence: ASDRMGMGV
- Kd (HLA-A*01:01 [2]; [7]): 1370 nM

Sequence: IIIFFIVLI
- Kd (HLA-A*32:01; [10]): 13.7 nM

Sequence: KEGDQYIYM
- Kd (HLA-B*40:01 [1]; [11]): 45.1 nM

Sequence: DMCDIYLLY
- Kd (HLA-A*23:01; [10]): 216 nM
- Kd (HLA-A*24:02; [10]): 2070 nM

Sequence: EEALKGLPI
- Kd (HLA-B*40:01 [1]; [7]): 3380 nM

Sequence: MEFIDGISL
- Kd (HLA-B*40:01 [1]; [8]): 0.18 nM
- Kd (HLA-B*44:02; [8]): 182 nM
- Kd (HLA-B*44:03; [8]): 52.9 nM

Sequence: SSVSSFERF
- Kd (HLA-B*58:01; source organism: Influenza A virus (A/camel/Mongolia/1982(H1N1))): 72.5 nM

Sequence: YTQLRFPKK
- Kd (HLA-A*03:01; [16]): 493 nM
- Kd (HLA-A*11:01 [4]; [16]): 4.3 nM

Sequence: LKIVRNMEKY
- Kd (HLA-A*30:02; [12]): 55.2 nM

Sequence: NGVVTKNGGY
- Kd (HLA-A*30:02; [7]): 15500 nM

Sequence: TEEAFKIGL
- Kd (HLA-B*40:01 [6]): 0.3 nM

Sequence: LFKTNTGTI
- Kd (HLA-A*24:02; [12]): 1280 nM

Sequence: AALLLLVAHY
- Kd (HLA-A*30:02; [12]): 10500 nM

Sequence: YLNGGRRGY
- Kd (HLA-A*02:01; [17]): ≥ 20000 nM
- Kd (HLA-A*69:01; [17]): ≥ 20000 nM

Sequence: YQGKTVWFVP
- Kd (HLA-A*32:01; [8]): 8500 nM

Sequence: FTNMEAQLV
- Kd (HLA-A*01:01 [2]; source organism: Dengue virus 3 Sri Lanka/1266/2000): 403 nM

Source: the Immune Epitope Database (IEDB)
